Assay results taken from the supplement of paper PMC9170038.

Tested on: MS2 coat protein
Experiment: apparent KD of MS2 coat protein; designed switch direction (-1 OFF switch, 1 ON switch): -1; higher = weaker reporter binding
Procedure, shortened: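 Designed RNA switches with common flanks were made on Illumina chips by stalled E. coli RNA polymerase. Titration with SNAP-549-labelled MS2 coat protein doubled from 0.7 or 1.5 nM up to 3 µM. Apparent KD is each design's median over clusters after curve-fitting normalised fluorescence.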

[1] = Eterna round: R95, input ligand: microRNA oligo, concentration not stated
[2] = input ligand: microRNA oligo, concentration not stated
[3] = Eterna round: R95, input ligand: FMN 200 uM
[4] = Eterna round: R95, input ligand: none

Sequence	apparent KD of MS2 coat protein (input ligand: FMN 200 uM)	apparent KD of MS2 coat protein (input ligand: none)	apparent KD of MS2 coat protein [1]	apparent KD of MS2 coat protein [2]	apparent KD of MS2 coat protein [3]	apparent KD of MS2 coat protein [4]
GGUACCUCUGUUAGGAUAUUGUUAGUGUGAAGCGACGAGAAGGAACAUGAGGAUCACCCAUGUUGCAUCGUAAA [Eternabot (L2) Solution 54] (Eterna round: R97, puzzle: Brourd's mod of Exclusion 4)	0.152 µM	0.0271 µM	–	–	–	–
ACAGCGUGAGGAUAUACAUGAGGAUCACCCAUGUGUGGCAGGUUAUCCUGUCAUGAGUGUAGAAGGCACGCUGU [Exclusion 3 - Oddities v.7 ( A small slide from ms2 to fmn)] (puzzle: Exclusion 3)	–	–	0.0262 µM	–	–	–
GUAGAGUCAGGAUAUACGGGAUCGAAAGAUCGGCGAUCCAUACAUGAGGAUCACCCAUGUAGAAGGGACUCUAC [Omei mod 10 to Eli's favorate candidate (ch.parushev)] (Eterna round: R97, puzzle: Exclusion 2)	0.189 µM	0.0227 µM	–	–	–	–
UGAUCAGACCGAGGAUAUACAGGGAGGACGCACGUGAGUGCGUCCACUACAUGAGGAUCACCCAUGUAGAAGGCGGUCUGAUCU [JL ENG2 1.99] (Eterna round: R96, puzzle: Exclusion NG 2)	0.319 µM	0.0199 µM	–	0.0169 µM	–	–
CGCUGGUGAGGAUAUGGGUGUUUUUACAUGAGGAUCACCCAUGUGGAGUAGCAUGUGGGUCCAGAAGGCGCGAGUG [-24.2, -22.5 kcal, 21% A] (Eterna round: R97, puzzle: Exclusion 5)	0.398 µM	0.309 µM	–	–	–	–
ACAAGCUUUUUGUUCGUCUUAUAAUAAUAAAUAAAUAUAACAUGAGGAUCACCCAUGUUAAGAAGACGGCCUCAUGU [Sesor Array 21 - Jieux - Sensor v3, turn-off variant 2] (puzzle: Sensor v3, turn-off variant 2)	–	–	0.174 µM	–	0.0822 µM	0.0718 µM
CAGUUCCAGGGAGGAUAUCCGAAAGGAAGUGUAGGAGAAGGCCCAAACUGAAAACACAUGAGGAUCACCCAUGUAGGUGUUCUC [PowerStrip EXNG 1.20] (Eterna round: R96, puzzle: Exclusion NG 1)	1.32 µM	0.659 µM	–	0.656 µM	–	–
CUUAGACAUGAGGAUCACCCAUGUGAGGAUAUGAUGCGAUCGUGCUGACAUGAUCGCAUCAGAAGGCACAAAUG [Mat - Mod of JL D65] (puzzle: Exclusion 1)	–	–	0.146 µM	–	–	–
ACAUGAGGAUCACCCAUGUUUGGCUGGUUUUCUCCGGCUGUCGAGGAUAUAGUACGGUAUCCGCGCUAGAAGGUGAGGGUCGGC [Aenatbe mod 2] (Eterna round: R96, puzzle: Exclusion NG 3)	0.0171 µM	0.019 µM	–	0.0122 µM	–	–
ACAUGAGGAUCACCCAUGUGCACGUAAUGGCUCAUGUAGAGUGAGGAUAUGCGUGGCGAACGCGCGCAGAAGGCACAAGACUGG [Deportation 18 - Jieux - Exclusion NG 3] (Eterna round: R96, puzzle: Exclusion NG 3)	0.129 µM	0.0997 µM	–	0.0888 µM	–	–
AGUACUAGCACGAAAGUGUUAGUACAAUAAGCUUGUGAAACAUGAGGAUCACCCAUGUCCUCAUAAGCUCGUCUUAU [salish99_TOv2_r3_020] (puzzle: Sensor v3, turn-off variant 2)	–	–	0.429 µM	–	0.0182 µM	0.016 µM
UGAGAGUGAGGAUAUACGUCGCUGGUCCAGAUGGACGCAUGACAUGAGGAUCACCCAUGUAGAAGGCAUUUCCC [Enxela Mod 8 - Jieux - Exclusion 2] (Eterna round: R97, puzzle: Exclusion 2)	0.0619 µM	0.0284 µM	–	–	–	–
AAUAUUAGAGGAUAUGCACUUGCACUAACGAAAUCCUCACCACAUGAGGAUCACCCAUGUAGAAGGCUGGUGGU [Eternabot (L2) Solution 65] (Eterna round: R97, puzzle: Exclusion 2)	0.354 µM	0.487 µM	–	–	–	–
CCUCAGUCACAGGAUAUGCUCAUCUAAUGAUGAGCAGAAGGGUGAACAUGAGGAUCACCCAUGUUUACGGUGGU [Omei Ex6 E8] (Eterna round: R97, puzzle: Exclusion 6)	0.122 µM	0.328 µM	–	–	–	–
AUAAUGUAAGGAUAUCAGUCGACUAGCCUCGGCUAGUCGACUGAGAAGGUACAUGAGGAUCACCCAUGUGUUUC [E4/12-A3] (Eterna round: R97, puzzle: Exclusion 4)	0.244 µM	0.0356 µM	–	–	–	–
UACACUGCAUGAGGAUCAAACAUGAGGAUCACCCAUGUAUAGCAGGCUUUUUGUCCGUCUUAUAAUUAUGUAGUGUA [Electric Eye 17 - Jieux - Sensor, turn-off variant 1] (Eterna round: R97, puzzle: Sensor, turn-off variant 1)	0.0173 µM	0.015 µM	–	–	–	–
UUUAAUUUUUUUUUUUUACAAGCUUUUUGCUCGUCUUAUACAUGAGGAUCACCCAUGUGGGUGGAAGGUAAAUUAUC [JMF 70] (puzzle: Sensor v3, turn-off variant 2)	–	–	0.0267 µM	–	0.0794 µM	0.176 µM
UCGGCGCGAGGAUAUACGUUUGCGCGUUUUCGUUUGCGCGUACAUGAGGAUCACCCAUGUAGAAGGCGCGCGGC [Apr-15 SS2-13] (puzzle: Exclusion 2)	–	–	0.0115 µM	–	–	–
UCGCUGCGAGGAUAUACAUGAGGAUCACCCAUGUACGGGUCCGGGUCUUAGUUGAUUGGUAGAAGGCGCAGUGA [JL Laongeedie mod 11] (puzzle: Exclusion 3)	–	–	0.0847 µM	–	–	–
UUGGAGAUAGGAUAUACGAGGAGAGUUGAGGGAAGGUGAUGACAUGAGGAUCACCCAUGUAGAAGGAUCAGGAG [JR_Exclu2_Sub069] (puzzle: Exclusion 2)	–	–	0.118 µM	–	–	–
UCAUACGAUGAGGAUAUCUCCGUUAAAGUAUGUAGAGAAGGCGUUACAUGAGGAUCACCCAUGUUUGUGGGCAG [Ex-6 Malc#9] (puzzle: Exclusion 6)	–	–	0.217 µM	–	0.223 µM	0.19 µM
GCGCAGCUGGUAGGAUAUUACAGACAGGACUCACGUAAGGGAGCCUGACAUGAGGAUCACCCAUGUAAGAAGGGCCGUGGUAUC [Eternabot solution 11] (Eterna round: R96, puzzle: Exclusion NG 2)	0.0345 µM	0.0225 µM	–	0.0198 µM	–	–
UGGCUGCUCAGGGAGUGUGACAUGAGGAUCACCCAUGUGGUGGUAGGGAACAAGCUUUUUGCACGUACUUAUGAGUC [JR_SV3TOV1_Sub009] (puzzle: Sensor v3, turn-off variant 1)	–	–	0.107 µM	–	0.84 µM	0.388 µM
UCUUACUGAGGAUAUACUUAGAUUUACAUGAGGAUCACCCAUGUUCCUCUAUGUAUAUAUGUAGAAGGCAGAAGAU [Mat - Exclusion 5 - JL Mod - D47] (Eterna round: R97, puzzle: Exclusion 5)	0.292 µM	0.0356 µM	–	–	–	–
GUUUCACAUGAGGAUCACCCAUGUGAGGAUAUACAUUUGUUAACCGUAGUUAAUAGAUGUAGAAGGCGCGUGAU [JRxlusion 4 - Jieux - Exclusion 1] (Eterna round: R97, puzzle: Exclusion 1)	0.0506 µM	0.0626 µM	–	–	–	–
